Key:
Details in all cases: protein: recombinant; tags: C-terminal His6 (pETM13); blunt
P150 575-860 (ED + WHD) = P150 575-860 (ED + WHD) (Homo sapiens, UniProt Q13111 575-860); experiment: EMSA; 2 uM DNA, 0-25 molar ratio; no complex detected; EMSA: 20 mM Tris-HCl, 100 mM NaCl, 1 mM DTT, pH 7.5, 45 min on ice; 6% PAGE in 0.5X TBE on ice
P150 721-860 (WHD) [1] = biological target: T1, P150 721-860 (WHD) (Homo sapiens, UniProt Q13111 721-860); experiment: EMSA; 1 uM DNA, Sybr Gold; fit with Hill slope; EMSA: 20 mM Tris-HCl, 100 mM NaCl, 1 mM DTT, pH 7.5, 45 min on ice; 6% PAGE in 0.5X TBE on ice
P150 721-860 (WHD) [2] = biological target: T1, P150 721-860 (WHD); experiment: EMSA; 21 uM DNA, 0-15 molar ratio, EtBr; EMSA: 20 mM Tris-HCl, 100 mM NaCl, 1 mM DTT, pH 7.5, 45 min on ice; 6% PAGE in 0.5X TBE on ice
P150 721-860 (WHD) [3] = biological target: T1, P150 721-860 (WHD); experiment: EMSA; about 21 uM DNA; EMSA: 20 mM Tris-HCl, 100 mM NaCl, 1 mM DTT, pH 7.5, 45 min on ice; 6% PAGE in 0.5X TBE on ice

T1 sequence (Q13111 721-860): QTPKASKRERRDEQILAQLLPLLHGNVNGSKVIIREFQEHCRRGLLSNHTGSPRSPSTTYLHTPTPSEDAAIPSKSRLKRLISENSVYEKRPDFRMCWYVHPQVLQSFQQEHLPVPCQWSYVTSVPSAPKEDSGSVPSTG
P150 575-860 (ED + WHD), sequence (Q13111 575-860): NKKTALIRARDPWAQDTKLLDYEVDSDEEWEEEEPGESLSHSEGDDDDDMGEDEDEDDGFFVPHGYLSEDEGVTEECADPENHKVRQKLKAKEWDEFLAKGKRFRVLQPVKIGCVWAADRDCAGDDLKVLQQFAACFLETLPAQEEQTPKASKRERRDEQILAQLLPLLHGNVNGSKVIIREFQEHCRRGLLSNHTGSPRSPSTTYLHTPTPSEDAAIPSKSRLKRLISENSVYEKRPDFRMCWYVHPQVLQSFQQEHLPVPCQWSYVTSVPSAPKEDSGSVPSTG

B1: 58 bp dsDNA (dsDNA)
DNA 1: ATACATTTTATGACTGGAAACTTTTTTGTACAACACTCCAATAAACATTTTGATTTTA
DNA 2: TAAAATCAAAATGTTTATTGGAGTGTTGTACAAAAAAGTTTCCAGTCATAAAATGTAT
P150 575-860 (ED + WHD)
  binding result: no binding
P150 721-860 (WHD) [1]
  Kd: 10.4 ± 0.5 µM

B2: 16 bp dsDNA (dsDNA)
DNA 1: TGCTACCGATCGATAC
DNA 2: GTATCGATCGGTAGCA
P150 721-860 (WHD) [2]
  binding result: binds

B3: 16 bp GC rich dsDNA (dsDNA)
DNA 1: ATCGCCCGCGCACGCA
DNA 2: TGCGTGCGCGGGCGAT
P150 721-860 (WHD) [3]
  binding result: binds

B4: 16 bp AT rich dsDNA (dsDNA)
DNA 1: ATAATCGATATTCGTT
DNA 2: AACGAATATCGATTAT
P150 721-860 (WHD) [3]
  binding result: binds
